Source: patent US20260109761A1 (IP2IPO INNOVATIONS, published 2026)
Changes are numbered by the printed parent chain.

B1: H2_T63Y_VL-par (antibody, V domains shown)
VH: QVQLVESGGGVVQPGRSLRLSCAASGFTFSDYGMHWVRQAPGKGLEWVAYISSGGTTIYYADYVKGRFTISRDNSKNTLYLQMNSLRAEDTAVYYCARWTNLYAMDYWGQGTTVTVSS
VL: DIVLTQSPDSLAVSLGERATINCRASKSVSTSGYSYMHWYQQKPGQPPKFLIYLASNLESGVPDRFSGSGSGTDFTLTISSLQAEDVAVYYCQHSREVPYTFGGGTKVEIKR
notes: Fc null human IgG1 / human kappa
B2: H2_Y60K_L2 (antibody, V domains shown)
VH: B1 VH with Y60K, Y63T
VL: B1 VL with L58K
notes: as for B1
B3: H3_M105P_L2 (antibody, V domains shown)
VH: B1 VH with Y63T, M105P
VL: B1 VL with L58K
notes: as for B1
B4: H3_W99H_VL-par (antibody, V domains shown)
VH: B1 VH with Y63T, W99H
VL: B1 VL
notes: as for B1

Molecular target: T1, huZIP12-ECD-GST (human, UniProt Q504Y0 24-202)
T1 construct: also called hZIP12-ECD-GST; human ZIP12-ECD-GST; not shown: glutathione S-transferase (GST) tag
Assay: HTRF competition: unlabelled antibody against Tb-labelled 51B12-parent on hZIP12-ECD-GST, detected with anti-GST-XL665
Protocol: Homogeneous Time Resolved Fluorescence (HTRF) assays were used to analyse the antibodies. A checkerboard assay was performed to validate the binding of the terbium labeled-antibody with hZIP12-ECD-GST. Serial dilutions (starting at 1000 ng/ml, semi-log dilutions) of Terbium-labeled 51B12-parent were incubated with serial dilutions of hZIP12-ECD-GST (starting at 5000 ng/ml, semi-log dilutions) followed by incubation with anti-GST-XL665. After excitation (320 nm), emission signals were obtained and HTRF ratio was calculated (665 nm/615 nm, Panel A). Signal/background ratios (S/B) were calculated from the HTRF ratios (0 ng/ml hZIP12-ECD-GST as background signal) and plotted against the Tb-51B12-parent concentration. The combinations 500 ng/ml hZIP12-ECD-GST+50 ng Tb-Ab, 150 ng/ml hZIP12-ECD-GST+50 ng Tb-Ab and 50 ng/ml hZIP12-ECD-GST+50 ng Tb-Ab were chosen as range for the competition assay. For the HTRF assay, 150 ng/ml hZIP12-ECD-GST+30 ng/ml Tb-51B12 was selected.

T1 sequence (Q504Y0 24-202): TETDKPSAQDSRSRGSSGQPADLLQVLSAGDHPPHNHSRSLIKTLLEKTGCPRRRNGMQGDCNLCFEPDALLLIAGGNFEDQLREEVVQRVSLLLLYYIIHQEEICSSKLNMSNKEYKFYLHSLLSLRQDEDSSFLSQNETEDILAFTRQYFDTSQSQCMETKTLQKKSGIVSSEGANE

Binder	IC50 (read off the curve) [µg/mL]
B1	~0.2
B2	~0.06
B3	~0.2
B4	~0.06
